± gives the standard deviation.
Experiment: protein stability index of a GFP-peptide fusion (GPS, HEK-293T) (PSI 1-6); higher = more stable
Conditions: c terminus: a fixed tail appended
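Also: 24-mer peptide tiles fused after GFP, lentivirally expressed, FACS-sorted into six equal bins by GFP/DsRed ratio, decoded by Illumina sequencing, PSI is the read-weighted mean bin number.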

Sequence | protein stability index (treatment: DMSO) | protein stability index (treatment: MLN4924 1 uM, 8 h)
RKSLLVVHQRTHTGEKPHTCSECG [ZNF649] | 3.98 ± 0.21 | 3.95 ± 0.42
GGRTALHHAALNGHVEMVNLLLAK [ANKRD44] | 2.76 ± 0.35 | 2.69 ± 0.23
PAPNKKRKSSKLIMELTGGGQESS [MYOZ1] | 4.82 ± 0.19 | 4.73 ± 0.16
CAFSRTLPWSSVLRVWDMFFCEGV [TBC1D10A] | 2.85 ± 0.42 | 2.94 ± 0.49
VKVLAFTSIGDGPLSSDIQVITQT [PTPRD] | 2.62 ± 0.48 | 2.31 ± 0.37
EKNNHRAKDLRAPPEQGKIFIARR [SOAT1] | 3.16 ± 0.33 | 3.27 ± 0.5
TQYFAELLMTSGVVLCEGVKWLSF [CNOT7] | 3.25 ± 0.2 | 3.56 ± 0.19
KGFIQKGNLNIHQRTHTGEKPYGC [ZNF649] | 3.67 ± 0.14 | 3.68 ± 0.2
GCEDEYLVNPTCQVLVKDFTFEGF [ZER1] | 2.89 ± 0.47 | 2.85 ± 0.4
LIISCRKLFYFKIWAFLDVSFVER [FBXO39] | 3.43 ± 0.47 | 2.9 ± 0.099
SVFKKGRRRVPVRNLGKVVHYAKV [PLEKHN1] | 2.36 ± 0.17 | 2.37 ± 0.84
KDQQTFARSVGLKWRKVGRSLQRG [TRADD] | 3.27 ± 0.34 | 3.49 ± 0.3
MLFFLPPGQHLSDYSQLNESTTKE [FBXO34] | 2.6 ± 0.25 | 2.61 ± 0.24
SDLKDDDAVPPGMESLISAPLVKT [CDC25B] | 5.21 ± 0.28 | 5.17 ± 0.43
LSLFIPESPRWLYSQGRLSEAEEA [SLC22A15] | 3.19 ± 0.35 | 3.44 ± 0.35
MEPATAPRPDMAPELTPEEEQATK [PTPN9] | 5.71 ± 0.097 | 5.08 ± 0.48
QELASLLRTYLARLPWAGQLTKEL [PBXIP1] | 2.95 ± 0.59 | 2.72 ± 0.7
VENNRRDVEAWFNTQTEELNQQVV [KRT36] | 4.67 ± 0.27 | 4.65 ± 0.14
SSAYVKTSEKLGEWNEKVTQSDLY [TPD52L2] | 4.02 ± 0.19 | 3.98 ± 0.17
HLESKDINQEELRALEEVEMKLQK [C10orf62] | 5.31 ± 0.32 | 5.34 ± 0.24
KDPRQWTETHVRDWVMWAVNEFSL [ETS1] | 2.67 ± 1.1 | 2.23 ± 0.34
QAAFTQQGMEGIKVFLHERELWLK [TBX5] | 2.86 ± 0.37 | 2.92 ± 0.4
KSRRSRSESETSTMAAKKNRQSSD [C18orf25] | 5.47 ± 0.15 | 5.53 ± 0.25

Sequence | protein stability index (treatment: DMSO) | protein stability index (treatment: MLN4924 1 uM, 8 h)
VQETNKQPPQTVNPIGHLPESLTK [ATF4] | 4.79 ± 0.24 | 4.86 ± 0.2
SIPRHFALSGKYSREFFNRRGELR [SRPK2] | 2.74 ± 0.46 | 2.8 ± 0.46
VELLLSHADCDRRSRIEALELLGA [FEM1B] | 2.7 ± 0.19 | 2.78 ± 0.21
FSKNLKLGIHEDSTNRRRLSELLR [HSP90AB1] | – | 2.43 ± 0.39
WSIPWKWLFGATAVALGGVALSVV [FKBP8] | 4.11 ± 0.43 | 3.98 ± 0.14
GILGFNSAEWFITAVGAILAGGLC [ACSBG2] | – | 3.62 ± 0.54
TRHYRPPEVILELGWAQPCDVWSI [CLK3] | 2.69 ± 0.65 | 2.47 ± 0.52
NDLWPTMENLLQATKSHVDKVIMK [DYNC2LI1] | 3.23 ± 0.25 | 3.31 ± 0.32
EAQHGPHSAVARISRAQYNALTLT [STX11] | 3.32 ± 0.11 | 3.47 ± 0.31
IYTEFPDETLRSGELLNMIVAVID [INTS3] | 2.14 ± 0.29 | 2.47 ± 0.099
SQVALKIIRNVGKYREAARLEINV [CLK3] | 2.67 ± 0.51 | 2.62 ± 0.54
WAAPRVGPLPPAPAMVRISKPKTF [YPEL3] | 3.15 ± 0.43 | 3.25 ± 0.18
GHSSSVEMFLYFEDHGLVTCSADH [WDR41] | 2.16 ± 0.34 | 2.25 ± 0.29
SLLDVAEPGGPGWLPESDCETVTC [SMAD6] | 4.63 ± 0.27 | 4.74 ± 0.18
EFLLDLGHHERSIMTDLYYLSQTD [FUT8] | 2.2 ± 0.36 | 2.47 ± 0.16
AGLLPPVPAQKFSALTFLRVDQDK [SMOC2] | 3.21 ± 0.21 | 3.3 ± 0.29
SLVSLVLYNMDLSDDHIRVIVQLH [ZER1] | 2.63 ± 0.41 | 2.71 ± 0.54
SQPIDLSACTVALHIFQLNEDGPS [TRIP13] | 2.56 ± 0.2 | 2.51 ± 0.28
EEMAVVPQGLFRGGKSGELEQEEE [CHGA] | 5.63 ± 0.27 | 5.62 ± 0.18
ISLALFVLPKPKVISCLEQGEEPW [ZNF75A] | 3.21 ± 0.49 | 2.9 ± 0.56
AAPPPPATPIVPVVPPTPPVVKKK [BRD3] | 5.51 ± 0.21 | 5.25 ± 0.48
EQPITDFCSVIRINSTAPFEEQEN [ZNF277] | 4.4 ± 0.23 | 4.46 ± 0.3
SLSELLSQLDSGVSQAVEGPEELS [RIPK4] | 4.27 ± 0.29 | 4.1 ± 0.4

Sequence | protein stability index (treatment: DMSO) | protein stability index (treatment: MLN4924 1 uM, 8 h)
FGHLSVFSTSKWNHLLHHFVIGHL [FADS1] | 2.58 ± 0.41 | 2.76 ± 0.78
EEVTRLGAQVKELEEKCQQPASEL [TRIM15] | 5.5 ± 0.12 | 5.52 ± 0.13
FLVANFSQIETLTSVFQKKLCTAH [MATN2] | 2.6 ± 0.56 | 2.52 ± 0.49
VRSGIVEYLSLVKGGQDVKKKVHL [PRIM1] | 2.43 ± 0.26 | 2.28 ± 0.44
DPGPEPEEEPGVRNGMASEGLNSS [PSD2] | 5.58 ± 0.25 | 5.44 ± 0.35
GGIQEGAVTPAGVVNKYQINGLQA [DHCR7] | 3.93 ± 0.27 | 4.17 ± 0.22
VPKNYVVVLSDGPALHPAHAPQIS [NCK2] | 2.42 ± 0.17 | 2.61 ± 0.31
TRGKRESESRGSSGRVKRERDRER [USP39] | 5.04 ± 0.26 | 5.3 ± 0.18
RSSHLVIHERTHERERLYPFSECG [ZNF263] | 2.93 ± 0.21 | 3.25 ± 0.3
PEMYILKGGYKEFFPQHPNFCEPQ [CDC25B] | 2.6 ± 0.46 | 2.84 ± 0.36
FGAVNLSSPSNMLPVRPQTNALIG [CLINT1] | 3.23 ± 0.12 | 3.26 ± 0.41
QCKEWQVLMCGFPFLLLFLGNFFT [TMEM120A] | 2.81 ± 0.053 | 2.92 ± 0.53
PGKKKIRWDPVRRRFIQSCPIIRI [KLHDC10] | 2.01 ± 0.29 | 2.1 ± 0.12
WKPPDIKGKLMVCYETLPRGQCLL [SPAG8] | 2.27 ± 0.4 | 2.32 ± 0.41
LISSGMSSHKQGHTSSEYDMLREM [TAF7L] | 3.75 ± 0.23 | 3.84 ± 0.19
SISLMYGGSKRKSSFFSSPPYFED [SLA] | 2.37 ± 0.38 | 2.59 ± 0.2
DPLSTNYSLAPNTPINQNVSLHQA [NFE2L1] | 4.25 ± 0.45 | 4.46 ± 0.16
LPPGFVLKKDKKKEEKEDEISLED [ZC3H15] | 5.54 ± 0.46 | 5.45 ± 0.36
ENSGILQGKLIKRQRLAKNDRGDH [EFHC1] | 3.85 ± 0.32 | 4.37 ± 0.11
LQGVPERLLGTAGTEEKKKLIRDF [VTI1B] | 4.25 ± 0.44 | 4.63 ± 0.2
HNRSNNKYSYTSTSDDNLLKNIEL [KCTD13] | 3.66 ± 0.12 | 3.73 ± 0.16
YFRHADPTWQNSIRHNLSLNKCFI [FOXJ1] | 2.45 ± 0.41 | 2.23 ± 0.31
CQEWYARRHCPLPQATFWGLVTPR [SOAT2] | 2.32 ± 0.23 | 2.25 ± 0.54

Sequence | protein stability index (treatment: DMSO) | protein stability index (treatment: MLN4924 1 uM, 8 h)
YRGAVYADNMEFEQCIKLWLHALH [FEM1B] | 2.19 ± 0.27 | 2.22 ± 0.48
YFFCENDAEFLCVFCREGPTHQAH [TRIM15] | 2.26 ± 0.35 | 2.33 ± 0.54
PSGEMVKSTTSLTSSSTSGSSDKV [MLH1] | 5.47 ± 0.39 | 5.59 ± 0.17
EVAGGGTPLLIAARYGHLDVVEYL [FEM1A] | 2.46 ± 0.19 | 2.32 ± 0.34
DLLLWIQKHTEVETVDLVLKLKNK [DENND6A] | 2.57 ± 0.63 | 2.21 ± 0.45
QNARLAELERKLREVMESAVGNSS [FBXO28] | 3.68 ± 0.23 | 3.52 ± 0.34
RTILLSVISLLNEPNTFSPANVDA [CDC34] | 2.77 ± 0.41 | 2.66 ± 0.54
FTSGTGHFTAMVWKNTKKMGVGKA [GLIPR2] | 2.66 ± 0.29 | 2.74 ± 0.2
VVLDRHGVYGLQRNLLVENIIDIY [TRIM55] | 2.44 ± 0.8 | 2.81 ± 0.099
RAYRFVQGKDWGFKKFIRRDFLLD [SPOPL] | 2.48 ± 1.1 | 2.28 ± 0.29
KLQLQLNETKSQAFVSNSPKLFCP [PLD5] | 2.87 ± 0.075 | 2.95 ± 0.6
TEELNKEVASNTEMIQTSKTEITD [KRT15] | 5.49 ± 0.29 | 5.52 ± 0.19
DLVDSLKLAVFMWLMTYVGAVFNG [RTN3] | 3.02 ± 0.59 | 3.2 ± 0.051
VTKMFQKIQDLIDDKDALVFVLID [TRIP13] | 2.72 ± 0.63 | 2.47 ± 0.17
SAGDADPENGEIKPASKPAGSSHT [ELOA2] | 5.42 ± 0.42 | 5.47 ± 0.44
TVKHIDAALSEENTGKTYFFVANK [MMP1] | 3.28 ± 0.32 | 3.38 ± 0.18
VFCPLDPPPPYEAVVSQMDQEQGS [FAM189A2] | 4.65 ± 0.13 | 4.76 ± 0.2
ICELVMALDYLQNQRIIHRDMKPD [STK32A] | 2.62 ± 0.64 | 2.44 ± 0.5
GKPGDRNCPEFPPPDRTLGCWATD [RSPH3] | 4.03 ± 0.28 | 4.32 ± 0.24
PFRGDEGIFEESFIEERRQGLEQF [SNX12] | 4.518 ± 0.041 | 4.42 ± 0.18
LCVILYKKVHKGTVPKNDADDESE [GLT8D2] | 2.02 ± 0.15 | 2.31 ± 0.1
